Reference: PMC3338697, “Determination of Membrane Protein Transporter Oligomerization in Native Tissue Using Spatial Fluorescence Intensity Fluctuation Analysis” (PLoS ONE, 2012)

Biological target: the molecule itself
Experiment: fluorescence image moment analysis; CLSM images of rat kidney cryostat sections immunolabelled with primary anti-NBCe1-A antibody and Alexa 488 secondary antibody; proximal tubule basolateral membranes; brightness normalised to non-specifically bound antibody (44±4 iu = 1 MEU)

B1: native NBCe1-A in rat kidney (proximal tubule basolateral cell membranes) (natural protein, rat (endogenous in rat kidney), UniProt Q9JI66-2 1-1035, looked up)
chain: MSTENVEGKPNNLGERGRARSSTFLRVFQPMFNHSIFTSAVSPAAERIRFILGEEDDSPAPPQLFTELDELLAVDGQEMEWKETARWIKFEEKVEQGGERWSKPHVATLSLHSLFELRTCMEKGSIMLDREASSLPQLVEMIADHQIETGLLKPDLKDKVTYTLLRKHRHQTKKSNLRSLADIGKTVSSASRMFSNPDNGSPAMTHRNLTSSSLNDISDKPEKDQLKNKFMKKLPRDAEASNVLVGEVDFLDTPFIAFVRLQQAVMLGALTEVPVPTRFLFILLGPKGKAKSYHEIGRAIATLMSDEVFHDIAYKAKDRHDLIAGIDEFLDEVIVLPPGEWDPAIRIEPPKSLPSSDKRKNMYSGGENVQMNGDTPHDGGHGGGGHGDCEELQRTGRFCGGLIKDIKRKAPFFASDFYDALNIQALSAILFIYLATVTNAITFGGLLGDATDNMQGVLESFLGTAVSGAIFCLFAGQPLTILSSTGPVLVFERLLFNFSKDHSFDYLEFRLWIGLWSAFMCLILVATDASFLVQYFTRFTEEGFSSLISFIFIYDAFKKMIKLADYYPINSDFRVGYNTHFSCACLPPDPVNLSVSNDTTLAPEDLPTVSSTDMYHNATFDWAYLSKKECVKFGGKLVGNNCDFVPDITLMSFILFLGTYTSSMAMKKFKTSRYFPTTARKLISDFAIILSILIFCVIDALVGVDTPKLIVPSEFKPTSPHRGWFVPPFGGNPWWVCLAAAIPALLVTILIFMDQQITAVIVNRKEHKLKKGAGYHLDLFWVAILMVVCSFMALPWYVAATVISIAHIDSLKMETETSAPGEQPKFLGVREQRVTGTLVFILTGLSVFMAPILKFIPMPVLYGVFLYMGVASLNGVQFMDRLKLLLMPLKHQPDFIYLRHVPLRRVHLFTSLQVLCLALLWILKSTVAAIIFPVMILALVAVRKGMDYLFSQHDLSFLDDVIPEKDKKKKEDEKKKKKKKGSLDSDNDDSDCPYSEKVPSIKIPMDITEQQPFLSDNKPLDRERSSTFLERHTSC
notes: Detected by a primary rabbit anti-NBCe1-A antibody and an Alexa 488 secondary antibody; also called endogenous NBCe1-A; immunolabeled NBCe1-A; source: endogenous, rat kidney cryostat sections (bought: Zyagen RF-901)
B1 was tested, and the “stoichiometry N” value was 2.
